Target: T1, His-PIF1 (Arabidopsis thaliana, UniProt Q8GZM7 1-478)
T1 construct: also called His-tagged PIF1; source: E. coli Transetta (DE3), purified (Ni-NTA agarose)
T1 sequence (looked up): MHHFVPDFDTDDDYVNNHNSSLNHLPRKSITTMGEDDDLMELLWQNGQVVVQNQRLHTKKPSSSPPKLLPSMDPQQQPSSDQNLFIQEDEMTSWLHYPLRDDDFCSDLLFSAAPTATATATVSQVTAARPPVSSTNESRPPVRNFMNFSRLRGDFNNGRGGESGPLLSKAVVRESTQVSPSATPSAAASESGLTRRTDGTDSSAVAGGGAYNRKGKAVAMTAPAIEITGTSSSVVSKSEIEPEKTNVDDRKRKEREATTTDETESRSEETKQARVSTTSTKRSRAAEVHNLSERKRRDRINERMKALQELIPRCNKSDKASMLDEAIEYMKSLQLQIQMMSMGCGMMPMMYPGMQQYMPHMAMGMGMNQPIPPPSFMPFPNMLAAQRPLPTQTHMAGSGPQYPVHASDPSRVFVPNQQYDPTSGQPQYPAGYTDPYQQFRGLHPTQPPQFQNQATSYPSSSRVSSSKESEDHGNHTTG
Experiment: pull-down; MBP or MBP-IAA3 held on amylose resin, His-PIF1 or His-PIF4 added, 3 h at 4°C; 50 mM Tris-Cl pH 8.0, 150 mM NaCl, 10% glycerol, 0.5 mM EDTA, 0.1% Triton X-100, 5 mM β-mercaptoethanol; five washes; blots with anti-MBP and anti-His
Details: both partners purified

- binding result: binds
B1: MBP-IAA3 (natural protein, Arabidopsis thaliana, UniProt Q38822 1-189, looked up)
chain: MDEFVNLKETELRLGLPGTDNVCEAKERVSCCNNNNKRVLSTDTEKEIESSSRKTETSPPRKAQIVGWPPVRSYRKNNIQSKKNESEHEGQGIYVKVSMDGAPYLRKIDLSCYKGYSELLKALEVMFKFSVGEYFERDGYKGSDFVPTYEDKDGDWMLIGDVPWEMFICTCKRLRIMKGSEAKGLGCGV
notes: IAA3 (SHY2), AUX/IAA transcriptional repressor, Arabidopsis; also called SHY2; source: E. coli Transetta (DE3), purified (amylose agarose)

— PMC7924758, “IAA3-mediated repression of PIF proteins coordinates light and auxin signaling in Arabidopsis” (PLoS Genetics, 2021)
